Measured values from ChEMBL document CHEMBL2074411.

Substrate: NCCc1ccc(O)c(O)c1
Assay: cells, lysate or membranes named

B1: Solute carrier family 22 member 2 (Rattus norvegicus) (protein)
chain: MSTVDDILEHIGEFHLFQKQTFFLLALLSGAFTPIYVGIVFLGFTPDHHCWSPGAAKLSQRCGWSQAEELNYTVPGLGPSDEASFLSQCMRYEVDWNQSTLDCVDPLSSLAADRNQLPLGPCEHGWVYNTPGSSIVTEFNLVCAHSWMLDLFQSVVNVGFFIGAMMIGYLADRFGRKFCLLVTILINAISGALMAISPNYAWMLVFRFLQGLVSKAGWLIGYILITEFVGLGYRRMVGICYQIAFTVGLLILAGVAYVIPNWRWLQFAVTLPNFCFLLYFWCIPESPRWLISQNKIVKAMKIIKHIAKKNGKSVPVSLQNLTPDEDAGKKLNPSFLDLVRTPQIRKHTLILMYNWFTSSVLYQGLIMHMGLAGDNIYLDFFYSALVEFPAAFIIILTIDRVGRRYPWAVSNMVAGAACLASVFIPDDLQWLKITIACLGRMGITMAYEMVCLVNAELYPTYIRNLGVLVCSSMCDIGGIITPFLVYRLTDIWMEFPLVVFAVVGLVAGALVLLLPETKGKALPETIEDAENMQRPRKKKEKRIYLQVKQADRPLS
B1 showed a Km of 2300 µM.
